# Laboratory results as given in IntAct's records for PubMed 16510448.
# B1: DNA polymerase delta subunit 4 (Homo sapiens), Q9HCU8 (parent)
# chain: MGRKRLITDSYPVVKRREGPAGHSKGELAPELGEEPQPRDEEEAELELLRQFDLAWQYGPCTGITRLQRWCRAKQMGLEPPPEVWQVLKTHPGDPRFQCSLWHLYPL
# Variants of: B1
# Conditions: with pcna_human PCNA
row,Variant,effect of a mutation on the interaction
1,MGRKRLATDAAPVVKRREGPAGHSKGELAPELGEEPQPRDEEEAELELLRQFDLAWQYGPCTGITRLQRWCRAKQMGLEPPPEVWQVLKTHPGDPRFQCSLWHLYPL [I7A;S10A;Y11A],disrupting interaction
